Values of other authors in patent US20140213534A1, “INTESTINAL HYPERPERMEABILITY AND PREVENTION OF SYSTEMIC DISEASE” (Thomas Jefferson University, priority 2011, published 2014).

Target: ST receptors (Homo sapiens, UniProt P25092)
Settings: relative to native ST; Currie et al. 1992

ST receptors, sequence (P25092 24-1073): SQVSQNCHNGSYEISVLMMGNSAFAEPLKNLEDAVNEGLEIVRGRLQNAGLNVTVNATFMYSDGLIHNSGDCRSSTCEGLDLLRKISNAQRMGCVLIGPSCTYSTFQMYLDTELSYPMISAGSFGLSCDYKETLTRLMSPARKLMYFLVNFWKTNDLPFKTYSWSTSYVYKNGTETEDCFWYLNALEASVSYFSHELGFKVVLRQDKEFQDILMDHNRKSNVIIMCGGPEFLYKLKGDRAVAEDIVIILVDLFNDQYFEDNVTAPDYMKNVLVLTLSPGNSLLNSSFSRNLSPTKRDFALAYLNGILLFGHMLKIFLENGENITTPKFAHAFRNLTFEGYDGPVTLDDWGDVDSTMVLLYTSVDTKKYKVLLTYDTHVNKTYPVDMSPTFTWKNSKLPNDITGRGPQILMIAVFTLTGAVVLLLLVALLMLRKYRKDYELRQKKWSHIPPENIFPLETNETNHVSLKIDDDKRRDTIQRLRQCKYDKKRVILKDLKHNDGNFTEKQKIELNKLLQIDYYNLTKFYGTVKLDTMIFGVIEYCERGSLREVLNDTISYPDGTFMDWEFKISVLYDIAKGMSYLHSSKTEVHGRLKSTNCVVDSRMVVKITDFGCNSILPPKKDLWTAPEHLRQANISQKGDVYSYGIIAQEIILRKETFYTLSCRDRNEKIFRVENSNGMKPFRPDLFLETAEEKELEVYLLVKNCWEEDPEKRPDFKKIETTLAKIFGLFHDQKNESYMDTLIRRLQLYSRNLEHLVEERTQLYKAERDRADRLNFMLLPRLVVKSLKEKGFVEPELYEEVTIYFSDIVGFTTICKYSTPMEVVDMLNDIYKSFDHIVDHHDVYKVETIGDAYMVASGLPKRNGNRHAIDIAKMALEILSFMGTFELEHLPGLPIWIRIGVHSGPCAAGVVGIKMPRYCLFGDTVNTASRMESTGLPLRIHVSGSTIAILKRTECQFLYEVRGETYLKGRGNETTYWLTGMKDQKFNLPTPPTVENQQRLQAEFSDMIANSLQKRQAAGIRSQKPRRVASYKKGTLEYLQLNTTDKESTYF

Question: Which “activates guanylate cyclase at a level fold less than native ST” value does the source give for “Guanylin: 15 amino acid peptide with about 50% sequence homology to ST, identified in mammalian intestine; endogenous GCC agonist (PNTCEICAYAACTGC; Rattus Norvegious)” here?
Answer: 10- to 100 fold
